Among the data in patent US20190062438A1 (CSL, published 2019) are Kd values, retold here.

Common to all, as to test: SPR, kinetics, Fab over captured mutant
The target in one experiment is T1, shCD131 S41A (human, UniProt P32927 17-438).
T1 construct: C-terminal 6xHis
T1 sequence: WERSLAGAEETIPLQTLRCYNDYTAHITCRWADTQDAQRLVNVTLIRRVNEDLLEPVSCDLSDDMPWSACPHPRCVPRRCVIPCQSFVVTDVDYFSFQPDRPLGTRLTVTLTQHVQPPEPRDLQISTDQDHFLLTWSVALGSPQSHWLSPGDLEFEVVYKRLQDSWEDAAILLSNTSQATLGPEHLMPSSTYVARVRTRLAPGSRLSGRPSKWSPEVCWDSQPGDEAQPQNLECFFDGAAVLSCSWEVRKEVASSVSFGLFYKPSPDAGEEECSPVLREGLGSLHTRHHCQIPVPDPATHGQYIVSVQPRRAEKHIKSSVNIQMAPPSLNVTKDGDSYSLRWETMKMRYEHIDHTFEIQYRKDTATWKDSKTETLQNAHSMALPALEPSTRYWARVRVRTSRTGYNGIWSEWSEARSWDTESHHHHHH
The protocol: (§1) As shβc is a dimer, kinetics assays were performed with shβc captured on the sensor surface, and purified Fab injected as the analyte. Avidity effects were avoided by the use of Fab rather than whole IgG.
(§2) shCD131 was captured on spots 1 and 5 of each flow cell for 2 minutes at a concentration of 0.4 μg/ml. […] For some analysis purified Fab was injected over each flow cell for 3 minutes and dissociation was monitored for a further 10 minutes. Regeneration of the surface was performed after each cycle with a 40 second injection of 25 mM glycine, pH 2.0. The analysis was performed with Fabs at several concentrations between 100 and 0.31 nM, with each concentration analyzed twice and in random order. The analysis was performed at a flow rate of 30 μl/min in HBS-EP buffer (10 mM Hepes, 150 mM NaCl, 3 mM EDTA, 0.005% Tween 20, pH 7.4) at 37° C. Responses from spots 2 and 4 of each flow cell, (in which shβc was not captured, but otherwise treated identically), were subtracted from those of spots 1 and 5 respectively to produce reference subtracted data. Reference subtracted responses from a blank injection comprising buffer alone were subtracted from the resultant sensorgrams to produce double referenced data suitable for kinetic analysis. Double-referenced sensorgrams were fitted using non-linear regression to a model describing 1:1 kinetics, including a term for mass transport limitation. The Rₘₐₓ value was fitted locally to account for slight deviations in the level of sCD131 captured, with association rate (kₐ), dissociation rate (kd) and equilibrium dissociation constant (KD) fitted globally.
(§3) Mapping of the shCD131 epitope was performed by measurement of the affinity of Fabs for various alanine point mutants of shCD131 essentially as described above, with the following exceptions. Each shCD131 mutant was captured for 120 seconds at concentrations between 1 and 5 μg/ml. For kinetic analysis, purified recombinant Fabs were injected for 2 minutes, and dissociation was monitored for a further 2 minutes. […] Fab concentrations ranged from 16 μM to 3.9 nM in two-fold dilutions.

The next experiment concerns the target T2, shCD131 V105A (human, UniProt P32927 17-438).
T2 construct: C-terminal 6xHis
T2 sequence: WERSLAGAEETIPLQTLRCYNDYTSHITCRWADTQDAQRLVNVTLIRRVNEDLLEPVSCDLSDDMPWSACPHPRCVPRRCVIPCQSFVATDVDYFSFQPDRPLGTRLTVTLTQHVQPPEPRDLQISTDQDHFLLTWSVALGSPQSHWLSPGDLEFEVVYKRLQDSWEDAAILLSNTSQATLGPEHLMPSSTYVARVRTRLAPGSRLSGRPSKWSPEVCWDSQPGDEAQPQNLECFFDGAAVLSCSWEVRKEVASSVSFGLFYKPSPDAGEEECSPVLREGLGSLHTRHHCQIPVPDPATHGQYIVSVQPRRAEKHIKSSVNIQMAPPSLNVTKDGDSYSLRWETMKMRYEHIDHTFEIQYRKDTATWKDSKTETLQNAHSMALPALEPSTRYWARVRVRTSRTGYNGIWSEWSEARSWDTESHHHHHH
The procedure:
as §1, §2, §3

In the next experiment the target is T3, shCD131 D107A (human, UniProt P32927 17-438).
T3 construct: C-terminal 6xHis
T3 sequence: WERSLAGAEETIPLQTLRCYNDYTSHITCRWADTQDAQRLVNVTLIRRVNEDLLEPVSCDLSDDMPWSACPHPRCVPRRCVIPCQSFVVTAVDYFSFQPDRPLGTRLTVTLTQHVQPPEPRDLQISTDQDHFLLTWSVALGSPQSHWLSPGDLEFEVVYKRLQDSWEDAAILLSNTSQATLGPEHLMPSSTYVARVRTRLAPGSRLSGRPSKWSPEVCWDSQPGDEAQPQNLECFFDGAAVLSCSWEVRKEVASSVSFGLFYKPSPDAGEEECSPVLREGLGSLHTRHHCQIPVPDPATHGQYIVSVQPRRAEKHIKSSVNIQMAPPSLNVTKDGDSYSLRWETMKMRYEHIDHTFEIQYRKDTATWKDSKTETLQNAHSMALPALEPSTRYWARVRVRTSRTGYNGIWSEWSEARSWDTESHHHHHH
The protocol:
as §1, §2, §3

The target of another experiment is T4, shCD131 R364A (human, UniProt P32927 17-438).
T4 construct: C-terminal 6xHis
T4 sequence: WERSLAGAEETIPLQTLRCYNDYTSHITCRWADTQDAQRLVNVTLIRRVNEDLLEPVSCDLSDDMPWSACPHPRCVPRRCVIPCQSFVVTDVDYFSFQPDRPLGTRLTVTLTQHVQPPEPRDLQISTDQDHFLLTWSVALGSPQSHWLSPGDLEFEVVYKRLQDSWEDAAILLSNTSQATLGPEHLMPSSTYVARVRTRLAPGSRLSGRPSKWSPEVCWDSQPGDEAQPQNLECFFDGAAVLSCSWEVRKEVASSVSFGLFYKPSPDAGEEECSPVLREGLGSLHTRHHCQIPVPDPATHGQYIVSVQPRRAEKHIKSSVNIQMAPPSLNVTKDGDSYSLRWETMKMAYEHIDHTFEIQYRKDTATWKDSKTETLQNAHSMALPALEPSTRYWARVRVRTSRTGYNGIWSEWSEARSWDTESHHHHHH
The protocol: as §1, §2, §3

B1: 9A2 Fab (Fab, V domains shown)
VH: EVQLLESGGGLVQPGGSLRLSCAASGFTFSHYHMLWVRQAPGKGLEWVSSIRSSGGFTYYADSVKGRFTISRDNSKNTLYLQMNSLRAEDTAVYYCARFYDSFFDIWGQGTMVTVSS
VL: DIQMTQSPSSVSASVGDRVTITCRASQGISSWLAWYQQKPGKAPKLLIYAASSLQSGVPSRFSGSGSGTDFTLTISSLQPEDFATYYCQQANSFPITFGQGTRLEIKR
notes: also called recombinant Fab of 9A2
For the molecule B1, the Kd (as a rule, the constant that tells how readily two partners part at equilibrium) with shCD131 S41A came out at 56 nM; in the experiment with shCD131 V105A, 78 nM; with shCD131 D107A, 191 nM; with shCD131 R364A, 119 nM.
